Assay [1] addresses TF on A431 cells (human) (UniProt P13726). The experiment in a line: flow. Particulars: Fc fusion.
Assay [2] has the same target. The assay is described as follows: flow. Particulars: Fc fusion. The source holds these as a separate data set.

Sequence of UniProt P13726 (P13726 33-295): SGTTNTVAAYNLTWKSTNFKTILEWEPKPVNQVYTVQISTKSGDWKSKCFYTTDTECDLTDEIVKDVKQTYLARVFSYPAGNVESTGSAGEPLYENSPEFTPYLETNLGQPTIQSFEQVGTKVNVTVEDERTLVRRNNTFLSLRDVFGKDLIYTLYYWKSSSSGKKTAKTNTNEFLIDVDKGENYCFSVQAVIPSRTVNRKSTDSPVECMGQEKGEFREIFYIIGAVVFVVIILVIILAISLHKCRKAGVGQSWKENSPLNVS

As usually defined, the EC50 is the concentration needed to bring the measured effect to its halfway point. Read a low EC50 as a more potent agent. ICON1_BHK: the EC50 was 2.5 nM with TF on A431 cells (human) [1] and 3.59 nM in the assay with TF on A431 cells (human) [2].

Regarding 2-armed ICON1 [Lot 10.1.1], in the assay with TF on A431 cells (human) [1], the EC50 is 15 nM.

As for ICON1_CHO, the concentration for a half-maximal effect (EC50) in the assay with TF on A431 cells (human) [1] was 12.9 nM.

These data come from patent US20190153119A1.
